The subject of the test is A431 cells. Put plainly: Binding of dendrimer-EGF conjugate by flow cytometry. It is filed as cell-based. The procedure:
Cell culture and treatment. The cell lines were cultured in Dulbecco's Modified Eagle Medium (DMEM) supplemented with 10% fetal calf serum (FCS), 100 units/ml penicillin, and 100 μg/ml streptomycin. Cells were allowed to grow in a monolayer in tissue culture flasks incubated at 37° C. in a humidified atmosphere containing 5% CO2 and 95% air. Cells plated in 24-well plates (for flow cytometry), 35 mm dishes with glass cover slips in the bottom (for confocal microscopy) and 96 well plates (for ‘FACE’ and ‘XTT’ assays) were treated with the conjugate under the specified incubation conditions. Excess free EGF was added 30 min prior to the conjugates for blocking the binding of the latter. Competition assay with free EGF was conducted at 4° C. by simultaneously exposing the conjugate and free EGF.
Flow Cytometry and Confocal Microscopy. The FITC fluorescence was quantified on a f a BECKMAN-COULTER EPICS-XL MCL flow cytometer, and the data were analyzed using EXPO32 software (BECKMAN-COULTER, Miami, Fla.). The viable cells were gated, and the mean FL1-fluorescence of 10,000 cells was quantified. […] Cells were incubated with the conjugate in serum-free medium under the specified conditions and analyzed using an OLYMPUS FLUOVIEW 500 laser scanning confocal microscope. FITC fluorescence was excited with a 488 nm blue argon laser and emission was measured through a 505-525 nm barrier filter. […]
In general terms: A flow cytometer gives signals particle by particle.

B1: EGF-FI (conjugate, UniProt P01133 23-1207, looked up)
Pro-epidermal growth factor: PQHWSCPEGTLAGNGNSTCVGPAPFLIFSHGNSIFRIDTEGTNYEQLVVDAGVSVIMDFHYNEKRIYWVDLERQLLQRVFLNGSRQERVCNIEKNVSGMAINWINEEVIWSNQQEGIITVTDMKGNNSHILLSALKYPANVAVDPVERFIFWSSEVAGSLYRADLDGVGVKALLETSEKITAVSLDVLDKRLFWIQYNREGSNSLICSCDYDGGSVHISKHPTQHNLFAMSLFGDRIFYSTWKMKTIWIANKHTGKDMVRINLHSSFVPLGELKVVHPLAQPKAEDDTWEPEQKLCKLRKGNCSSTVCGQDLQSHLCMCAEGYALSRDRKYCEDVNECAFWNHGCTLGCKNTPGSYYCTCPVGFVLLPDGKRCHQLVSCPRNVSECSHDCVLTSEGPLCFCPEGSVLERDGKTCSGCSSPDNGGCSQLCVPLSPVSWECDCFPGYDLQLDEKSCAASGPQPFLLFANSQDIRHMHFDGTDYGTLLSQQMGMVYALDHDPVENKIYFAHTALKWIERANMDGSQRERLIEEGVDVPEGLAVDWIGRRFYWTDRGKSLIGRSDLNGKRSKIITKENISQPRGIAVHPMAKRLFWTDTGINPRIESSSLQGLGRLVIASSDLIWPSGITIDFLTDKLYWCDAKQSVIEMANLDGSKRRRLTQNDVGHPFAVAVFEDYVWFSDWAMPSVMRVNKRTGKDRVRLQGSMLKPSSLVVVHPLAKPGADPCLYQNGGCEHICKKRLGTAWCSCREGFMKASDGKTCLALDGHQLLAGGEVDLKNQVTPLDILSKTRVSEDNITESQHMLVAEIMVSDQDDCAPVGCSMYARCISEGEDATCQCLKGFAGDGKLCSDIDECEMGVPVCPPASSKCINTEGGYVCRCSEGYQGDGIHCLDIDECQLGEHSCGENASCTNTEGGYTCMCAGRLSEPGLICPDSTPPPHLREDDHHYSVRNSDSECPLSHDGYCLHDGVCMYIEALDKYACNCVVGYIGERCQYRDLKWWELRHAGHGQQQKVIVVAVCVVVLVMLLLLSLWGAHYYRTQKLLSKNPKNPYEESSRDVRSRRPADTEDGMSSCPQPWFVVIKEHQDLKNGGQPVAGEDGQAADGSMQPTSWRQEPQLCGMGTEQGCWIPVSSDKGSCPQVMERSFHMPSYGTQTLEGGVEKPHSLLSANPLWQQRALDPPHQMELTQ
modifications: Pro-epidermal growth factor fluorescein label
Turning to B1, the IC50 (100 nM conjugate, 1 h at 4° C., value listed under the conjugate displaced, read-out: concentration of free EGF giving 50% inhibition of binding of the labeled conjugate) amounted to 60 nM. In addition, the “apparent KA” value (double reciprocal binding plots of normalized fluorescence) was 15 nM.

The values above are taken from US20090088376A1, “DENDRIMER BASED COMPOSITIONS AND METHODS OF USING THE SAME” (priority 2007, published 2009).
